Source: patent US8030025B2, “Antibodies directed to angiopoietin-1 and angiopoietin-2 and uses thereof” (Amgen Inc., dated 2011)
Changes are numbered by the printed parent chain.

B1: H5L7 (antibody, V domains shown)
VH: EVQLVQSGGGVVQPGRSLRLSCAASGFTFSSYGMHWVRQAPGKGLEWVSYISSSGSTIYYADSVKGRFTISRDNAKNSLYLQMNSLRAEDTAVYYCARDLLDYDIWTGYGYWGQGTLVTVSS
VL: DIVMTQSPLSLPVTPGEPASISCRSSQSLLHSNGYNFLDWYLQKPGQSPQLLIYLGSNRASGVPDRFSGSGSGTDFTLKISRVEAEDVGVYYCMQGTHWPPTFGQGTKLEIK
B2: H4L7 (antibody, V domains shown)
VH: B1 VH with I105L, W106L
VL: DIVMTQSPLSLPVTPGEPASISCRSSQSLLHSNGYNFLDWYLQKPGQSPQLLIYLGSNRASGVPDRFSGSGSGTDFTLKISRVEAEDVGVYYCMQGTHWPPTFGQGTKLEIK
B3: H10L7 (antibody, V domains shown)
VH: B1 VH with W106L, Y111L
VL: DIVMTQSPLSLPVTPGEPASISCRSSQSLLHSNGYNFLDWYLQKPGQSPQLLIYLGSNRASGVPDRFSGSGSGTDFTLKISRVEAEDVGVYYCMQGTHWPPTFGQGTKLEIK
B4: H5L12 (antibody, V domains shown)
VH: B1 VH
VL: not shown
B5: H4L12 (antibody, V domains shown)
VH: B1 VH with I105L, W106L
VL: not shown
B6: H6L7 (IgG2) (antibody, V domains shown)
VH: B1 VH with W106Y
VL: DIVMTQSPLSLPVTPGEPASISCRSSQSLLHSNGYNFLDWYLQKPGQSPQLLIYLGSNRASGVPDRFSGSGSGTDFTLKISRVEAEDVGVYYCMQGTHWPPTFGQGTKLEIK
B7: H5L9 (antibody, V domains shown)
VH: B1 VH
VL: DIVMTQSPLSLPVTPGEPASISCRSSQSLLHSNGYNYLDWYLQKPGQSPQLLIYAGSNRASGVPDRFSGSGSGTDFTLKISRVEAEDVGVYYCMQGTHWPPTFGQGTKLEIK
B8: H5L1 (antibody, V domains shown)
VH: B1 VH
VL: not shown
B9: H2L7 (antibody, V domains shown)
VH: B1 VH with Y59E, W106L
VL: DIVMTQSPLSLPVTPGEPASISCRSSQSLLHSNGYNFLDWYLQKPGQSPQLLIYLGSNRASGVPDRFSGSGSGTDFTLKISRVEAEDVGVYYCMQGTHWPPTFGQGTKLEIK
B10: H11L7 (antibody, V domains shown)
VH: B1 VH with W106L, Y111M
VL: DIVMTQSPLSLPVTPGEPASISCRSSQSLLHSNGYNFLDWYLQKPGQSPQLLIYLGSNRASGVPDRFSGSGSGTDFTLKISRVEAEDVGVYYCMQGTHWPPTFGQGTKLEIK
B11: H4L11 (IgG2) (antibody, V domains shown)
VH: B1 VH with I105L, W106L
VL: not shown
B12: H4L4 (IgG2) (antibody, V domains shown)
VH: B1 VH with I105L, W106L
VL: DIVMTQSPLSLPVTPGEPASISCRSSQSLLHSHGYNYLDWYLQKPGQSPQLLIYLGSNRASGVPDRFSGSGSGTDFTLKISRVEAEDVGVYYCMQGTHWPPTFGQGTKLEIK
B13: H4L2 (antibody, V domains shown)
VH: B1 VH with I105L, W106L
VL: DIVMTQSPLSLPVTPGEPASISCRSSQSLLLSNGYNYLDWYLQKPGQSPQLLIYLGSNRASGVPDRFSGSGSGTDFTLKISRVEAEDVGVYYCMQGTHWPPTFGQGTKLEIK
B14: H4L11 (antibody, V domains shown)
VH: B1 VH with I105L, W106L
VL: not shown
B15: H6L8 (antibody, V domains shown)
VH: B1 VH with W106Y
VL: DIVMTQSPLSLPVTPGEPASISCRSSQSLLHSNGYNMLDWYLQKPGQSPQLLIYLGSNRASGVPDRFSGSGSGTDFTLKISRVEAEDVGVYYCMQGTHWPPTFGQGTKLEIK
B16: 536 LC1 (antibody, V domains shown)
VH: B1 VH with W106L
VL: not shown
B17: H6L7 (antibody, V domains shown)
VH: B1 VH with W106Y
VL: not shown
B18: H5L6 (antibody, V domains shown)
VH: B1 VH
VL: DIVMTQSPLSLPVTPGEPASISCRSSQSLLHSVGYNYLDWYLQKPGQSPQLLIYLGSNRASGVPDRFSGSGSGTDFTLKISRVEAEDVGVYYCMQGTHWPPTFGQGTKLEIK
B19: H5L11 (antibody, V domains shown)
VH: B1 VH
VL: not shown
B20: H4L4 (antibody, V domains shown)
VH: B1 VH with I105L, W106L
VL: not shown
B21: H3L7 (antibody, V domains shown)
VH: B1 VH with Y59Q, W106L
VL: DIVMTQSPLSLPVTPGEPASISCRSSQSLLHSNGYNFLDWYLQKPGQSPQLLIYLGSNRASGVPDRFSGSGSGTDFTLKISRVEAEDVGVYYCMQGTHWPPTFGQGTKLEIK
B22: H5L4 (antibody, V domains shown)
VH: B1 VH
VL: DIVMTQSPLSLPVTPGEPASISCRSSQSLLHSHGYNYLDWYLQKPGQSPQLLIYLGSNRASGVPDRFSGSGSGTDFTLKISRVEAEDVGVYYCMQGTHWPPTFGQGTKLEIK
B23: H4L13 (antibody, V domains shown)
VH: B1 VH with I105L, W106L
VL: not shown
B24: H4L6 (antibody, V domains shown)
VH: B1 VH with I105L, W106L
VL: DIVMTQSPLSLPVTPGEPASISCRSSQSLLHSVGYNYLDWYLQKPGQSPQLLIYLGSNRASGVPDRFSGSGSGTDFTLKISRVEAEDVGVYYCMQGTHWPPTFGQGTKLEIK
B25: H5L8 (antibody, V domains shown)
VH: B1 VH
VL: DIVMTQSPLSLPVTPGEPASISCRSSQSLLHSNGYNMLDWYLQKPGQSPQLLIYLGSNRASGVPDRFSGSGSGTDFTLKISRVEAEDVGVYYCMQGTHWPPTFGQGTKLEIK
B26: H6L6 (antibody, V domains shown)
VH: B1 VH with W106Y
VL: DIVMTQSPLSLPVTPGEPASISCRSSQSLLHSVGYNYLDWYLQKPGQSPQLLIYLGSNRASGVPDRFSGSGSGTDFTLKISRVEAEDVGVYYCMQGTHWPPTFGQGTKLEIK

Tests used:
[1] = molecular target: biotinylated human angiopoietin 1 (human, UniProt Q15389, biotin); test: HTRF neutralization; biotin-hAng1 vs huTie-2-Fc-APC
[2] = molecular target: biotinylated human angiopoietin 2 (human, UniProt O15123, biotin); test: HTRF neutralization; biotin-hAng2 vs huTie-2-Fc-APC
Cyno Ang1 = Cyno Ang1 (cynomolgus monkey, UniProt A0A2K5VW43); test: neutralization ELISA; coated angiopoietin vs Tie2-Fc
Rabbit Ang1 = Rabbit Ang1 (rabbit, UniProt G1SK98); test: as above
Human Ang1 = Human Ang1 (human, UniProt Q15389); test: as above
Murine Ang1 = Murine Ang1 (mouse, UniProt O08538); test: as above
Murine Ang2 = Murine Ang2 (mouse, UniProt O35608); test: as above
Rabbit Ang2 = Rabbit Ang2 (rabbit, UniProt G1T9B3); test: as above
Cyno Ang2 = Cyno Ang2 (cynomolgus monkey, UniProt A0A2K5VNX6); test: as above
Human Ang2 = Human Ang2 (human, UniProt O15123); test: as above

Row | Binder | IC50 [1] [nM] | IC90 [1] [nM] | IC50 [2] [nM] | IC90 [2] [nM] | IC50 (Cyno Ang1) [nM] | IC50 (Rabbit Ang1) [nM] | IC50 (Human Ang1) [nM] | IC50 (Murine Ang1) [nM] | IC50 (Murine Ang2) [nM] | IC50 (Rabbit Ang2) [nM] | IC50 (Cyno Ang2) [nM] | IC50 (Human Ang2) [nM]
1 | B1 | 0.07 | 0.42 | 0.07 | 0.23 | – | – | – | – | – | – | – | –
2 | B2 | 0.23 | 2.8 | 0.06 | 0.22 | – | – | – | – | – | – | – | –
3 | B3 | 0.15 | 2.2 | 0.06 | 0.19 | – | – | – | – | – | – | – | –
4 | B4 | – | – | 0.07 | – | – | – | – | – | – | – | – | –
5 | B5 | 0.63 | 8.7 | 0.06 | 0.21 | – | – | – | – | – | – | – | –
6 | B6 | – | – | – | – | 0.19 | 0.18 | 0.12 | 0.12 | 0.13 | 0.15 | 0.19 | 0.22
7 | B7 | 18 | 181 | 0.19 | 1.57 | – | – | – | – | – | – | – | –
8 | B8 | – | – | 0.06 | – | – | – | – | – | – | – | – | –
9 | B9 | 0.33 | 3.6 | 0.06 | 0.2 | – | – | – | – | – | – | – | –
10 | B10 | 0.15 | 1.2 | 0.06 | 0.2 | – | – | – | – | – | – | – | –
11 | B11 | – | – | – | – | – | 16 | 17 | 7.7 | 0.12 | 0.12 | 0.16 | 0.21
12 | B12 | – | – | – | – | 4 | 2.8 | 3.2 | 3.3 | 0.15 | 0.15 | 0.24 | 0.22
13 | B13 | 0.66 | 6.8 | 0.06 | 0.19 | – | – | – | – | – | – | – | –
14 | B14 | 7.3 | 107 | 0.05 | 0.17 | – | – | – | – | – | – | – | –
15 | B15 | 0.57 | 7.7 | 0.05 | 0.19 | – | – | – | – | – | – | – | –
16 | B16 | – | – | – | – | 531 | 502 | 515 | 305 | 0.14 | 0.2 | 0.19 | 0.27
17 | B17 | 0.06 | 0.49 | 0.06 | 0.19 | – | – | – | – | – | – | – | –
18 | B18 | 0.32 | 3.6 | 0.07 | 0.23 | – | – | – | – | – | – | – | –
19 | B19 | 0.97 | 18 | 0.08 | 0.25 | – | – | – | – | – | – | – | –
20 | B20 | 0.87 | 8.2 | 0.06 | 0.16 | – | – | – | – | – | – | – | –
21 | B21 | 0.58 | 7.1 | 0.06 | 0.23 | – | – | – | – | – | – | – | –
22 | B22 | 0.6 | 11 | 0.07 | 0.21 | – | – | – | – | – | – | – | –
23 | B23 | 0.15 | 1.6 | 0.06 | 0.19 | – | – | – | – | – | – | – | –
24 | B24 | 0.74 | 15 | 0.06 | 0.2 | – | – | – | – | – | – | – | –
25 | B25 | 0.37 | 3.6 | 0.07 | 0.21 | – | – | – | – | – | – | – | –
26 | B26 | 0.66 | 10 | 0.06 | 0.2 | – | – | – | – | – | – | – | –
